This is an account of results in patent US20190092852A1 (Genentech, published 2019).

The target in assay [1] is T1, human IL-33 (Genentech, huIL33.his) (human, UniProt O95760 112-270).
T1 sequence (looked up): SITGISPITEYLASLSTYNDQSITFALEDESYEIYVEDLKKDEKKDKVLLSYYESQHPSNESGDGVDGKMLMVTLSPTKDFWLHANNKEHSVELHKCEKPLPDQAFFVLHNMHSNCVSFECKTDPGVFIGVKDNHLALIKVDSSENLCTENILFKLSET
Nature of the assay: SPR Biacore. On the technique in general: SPR reads the build-up and loss of mass on a sensor chip optically.

The target of assay [2] is T2, human IL-33 (cell-based blocking assay of Example 2) (human, UniProt O95760 112-270).
T2 sequence (looked up): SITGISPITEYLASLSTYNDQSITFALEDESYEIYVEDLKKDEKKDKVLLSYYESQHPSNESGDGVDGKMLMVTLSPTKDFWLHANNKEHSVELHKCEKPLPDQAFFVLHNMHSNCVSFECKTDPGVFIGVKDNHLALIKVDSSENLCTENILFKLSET
Put plainly: cell-based or functional assay.

The target of assay [3] is T3, cyno IL-33 (cell-based blocking assay of Example 2) (cynomolgus monkey, UniProt A0A2K5W3I1 95-269).
T3 sequence: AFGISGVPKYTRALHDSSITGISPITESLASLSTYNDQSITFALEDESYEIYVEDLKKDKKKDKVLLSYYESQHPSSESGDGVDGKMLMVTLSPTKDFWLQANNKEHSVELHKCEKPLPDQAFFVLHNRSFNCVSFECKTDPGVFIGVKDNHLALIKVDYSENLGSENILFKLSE
Put plainly: cell-based or functional assay.

Assay [4] concerns the target T4, cyno IL-33 N-His (cynomolgus monkey).
T4 chain: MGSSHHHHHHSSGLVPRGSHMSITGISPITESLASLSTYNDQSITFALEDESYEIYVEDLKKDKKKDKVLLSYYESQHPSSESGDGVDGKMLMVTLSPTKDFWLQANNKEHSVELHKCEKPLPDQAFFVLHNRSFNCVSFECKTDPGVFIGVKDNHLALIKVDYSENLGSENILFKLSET
Nature of the assay: SPR Biacore T200, 25 C. On the procedure:
(§1) The binding kinetics of the anti-IL-33 antibody 10C12.38.H6.87Y.58I IgG4 and each anti-IL-33 antibody listed in Table 5 (RG1-RG20) to IL-33 were measured using surface plasmon resonance (SPR) on a BIACORE® T200 instrument (GE Healthcare). Anti-human Fc or anti-murine Fc (GE Healthcare, #BR-1008-39 or BR-1008-38, respectively) was immobilized on a CM5 sensor chip via amine-based coupling according to the manufacturer's protocol. Surfaces were used to capture monoclonal human IgG4 and monoclonal murine IgGs for kinetic studies. Antibody binding was measured to human IL-33 (R&D systems, #3625-IL-010/CF) and cyno IL-33 N-His (SEQ ID NO: 317) (Genentech, Inc.). A three-fold concentration series of cytokine with a range of 3.7 to 100 nM was used for the experiments. Sensograms for binding of IL-33 were recorded using an injection time of 4 min with a flow rate of 30 μl/minute with a running buffer of 0.01 M N-(2-Acetamido)iminodiacetic acid (ADA) pH 7.4, 0.15 M NaCl, 3 mM EDTA, and 0.05% TWEEN®-20. After injection, disassociation of the ligand from the antibody was monitored for 10 min in running buffer. The surface was regenerated in between cycles with an injection of 3 M magnesium chloride or Glycine-HCl pH 1.7. All binding experiments were performed at a temperature of 25′C and 37° C. After subtraction of a blank which contained running buffer only, sensograms observed for IL-33 binding to anti-IL-33 antibodies were analyzed using a 1:1 Langmuir binding model with software supplied by the manufacturer to calculate the kinetics and binding constants, including the dissociation constant (KD). Dissociative half-lives (t_{1/2}) were calculated from the kinetic rate constants. KD (M)=koff/kₒₙ and t_{1/2} (min)=ln(2)/(60*koff). […] In Tables 6-9, *IC indicates the result is inconclusive due to weak capture of antibody was observed, leading to poor binding data.

In assay [5] the target is T4, cyno IL-33 N-His. Nature of the assay: SPR Biacore T200, 37 C. The procedure: as §1
Assay [6] deals with T5, cynomolgus monkey N-terminal 6-His-tagged and C-terminal Avi-tagged IL-33 (S112-T270) (cynomolgus monkey).
T5 chain: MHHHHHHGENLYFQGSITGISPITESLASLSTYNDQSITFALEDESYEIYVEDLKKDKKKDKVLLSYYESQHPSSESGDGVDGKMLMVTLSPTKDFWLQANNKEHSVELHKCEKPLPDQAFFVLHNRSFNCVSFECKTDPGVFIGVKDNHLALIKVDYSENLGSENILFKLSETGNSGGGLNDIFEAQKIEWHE
Put plainly: cell-based or functional assay.

In assay [7] the target is T6, biotinylated cyno IL-33 (cynomolgus monkey, UniProt A0A2K5W3I1 112-269, biotin-labeled with EZ-LINK NHS-PEG4-Biotin).
T6 construct: also called biotin-cyIL-33
T6 sequence: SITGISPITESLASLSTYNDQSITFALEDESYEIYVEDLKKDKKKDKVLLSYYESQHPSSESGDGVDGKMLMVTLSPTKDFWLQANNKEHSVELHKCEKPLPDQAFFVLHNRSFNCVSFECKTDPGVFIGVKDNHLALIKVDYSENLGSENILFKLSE
Nature of the assay: competitive ELISA, biotin-cyIL-33 to coated hST2-Fc. On the procedure: The ability of the anti-IL-33 antibody 10C12.38.H6.87Y.58I IgG4 and each anti-IL-33 antibody listed in Table 5 (RG1-RG20) to block either human IL-33 or cyno IL-33 binding to human ST2 receptor was tested in a competitive binding ELISA. Briefly, 1 μg/ml of recombinant human ST2-Fc chimera protein prepared in coating buffer (50 mM sodium carbonate, pH 9.6) was coated on a 384-well MAXISORP® plate (Nalgene Nunc International; Rochester, N.Y.) and incubated overnight at 4° C. On the next day, non-specific binding was blocked with PBS containing 0.5% (w/v) solution of bovine serum albumin (BSA). Fixed concentrations of biotinylated human or cyno IL-33 prepared in assay buffer (25 mM PBS, pH 7.2, 0.1% BSA, 0.05% TWEEN®-20) were mixed with an equal volume of serially-diluted anti-IL-33 antibodies or assay buffer alone and incubated for 1 h at room temperature. The final assay concentrations of biotinylated human IL-33 or cyno IL-33 were 20 pM and 45 pM, respectively, and the final assay concentration of each antibody ranged from 0-300 nM. The pre-mixed solutions were added to the ST2-Fc coated plate and incubated for 1 h at room temperature. The binding of biotinylated IL-33 to coated ST2-Fc was detected by the sequential addition of Streptavidin Poly-HRP80 (Fitzgerald; Buckinghamshire, UK) and 3,3′,5,5′-tetramethyl benzidine (TMB) Microwell Peroxidase Substrate System (KPL; Gaithersburg, Md.). The absorbance (450 nm) was recorded using a […] ASCENT® plate reader (Thermo Scientific; Rockford, Ill.). The binding activity (%) of biotin-IL-33 to ST2 in the presence of anti-IL-33 was plotted as a function of antibody concentration. The data generated were fitted to a four-parameter equation to determine IC₅₀ values for each antibody (FIGS. 25A and 25B) using Prism software (Graphpad Software; La Jolla, Calif.). The maximum blocking (%) of each antibody was calculated as the ratio of the reduction in signal measured in the presence of antibody relative to the difference between the signal with IL-33 alone and background measurements.

Where “and” joins values, the source holds several entries; their conditions need not be identical. Equal entries are not always repeated. Bounds are passed on as bounds.

B1: 9F6.34.E10 (antibody, V domains shown)
VH: EVQLVQSGAEVKKPGASVKVSCKASGYTFTSYWINWVRQAPGQGLEWIGRIAPGSGFISYNELFKDRVTITRDTSTSTAYLELSSLRSEDTAVYYCAREFYYGSFYGGFAYWGQGTLVTVSS
VL: DIQMTQSPSSLSASVGDRVTITCHASQNIHVWLSWYQQKPGKAPKLLIYKASTLHTGVPSRFSGSGSGTDFTLTISSLQPEDFATYYCQQGQSSPLTFGQGTKVEIK
notes: Humanized variant of 9F6
B1: the affinity in assay [1], expressed as Kd, was 0.795 nM. Also, the “Cell assay (hu) IC90” value in assay [2] is 0.0128 µg/mL and 0.84 nM. Also, in assay [3], the “Cell assay (cy) IC90” value is > 1.5 µg/mL and > 9.9 nM.

B2: H4H9660P (antibody, V domains shown)
VH: EVQLVESGGGLVQPGGSLRLSCAASGITLSSYGMSWVRQAPGKGLEWVASIFGSGGGPYYADSVKGRFTMSRDNSKNTLYLQMNSLRAEDTAVYYCAKDRYSGSYYGGFDYWGRGTLVTVSS
VL: DIQMTQSPSSVSASVGDRVTITCRASQGITSWLAWYQQKPGKAPTLLIYAASSLQTGVPSRFSGSGSGTDFTLTISSLQPEHFATYYCQQANSFPPTFGGGTKVEIK
With B2, in assay [4], the affinity, expressed as Kd, was 2.69 nM; the koff (as a rule, a measure of how fast the partners let go of each other) was found to be 0.00064 s⁻¹; the kon (usually the rate constant with which the complex forms) is 238000 M⁻¹ s⁻¹; the t1/2 is 18 min. In assay [5], the Kd (commonly the equilibrium constant for the complex coming apart) worked out at 7.93 nM, the koff amounted to 0.00305 s⁻¹, the kon was 385000 M⁻¹ s⁻¹ and the t1/2 worked out at 4 min. For the same molecule, in assay [6], the “IC50; SEAP reporter (OD 620), HEK-BLUE IL-33/IL-1beta cells, 5 pM cyno IL-33 (5pM cIL-33-Nhis)” value (“IC50; SEAP reporter” for short) is 4.8e-08 M. Also, in assay [7], the 50% inhibitory concentration (IC50) (usually the point on the concentration scale where inhibition reaches its midpoint) came to 120 nM and the “Maximum Blocking” value was 18%.

B3: H4H9665P (antibody, V domains shown)
VH: EVQLVESGGGLVQPGGSLRLSCAASGFTFSNYAMTWVRQAPGKGLEWVSTISGSGDNTYYADSVQGRFTISRGHSKNTLYLQMNSLRAEDTAVYYCAKPTYSRSWYGAFDFWGQGTMVTVSS
VL: DIQMTQSPSSVSASVGDRVTITCRASQGISSWLAWYQQKPGKAPQLLIYAASRLQSGVPSRFWGSGSGTDFTLTISSLQPEDFATYYCQQANNFPFTFGPGTKVDIK
With B3, in assay [4], the Kd worked out at 0.976 nM, the off-rate constant (koff) was found to be 0.000426 s⁻¹, the kon came to 437000 M⁻¹ s⁻¹ and the t1/2 amounted to 27 min. In assay [5], this molecule yielded a Kd of 1.96 nM, a koff of 0.00142 s⁻¹, a kon of 727000 M⁻¹ s⁻¹ and a t1/2 of 8 min. Further, the “IC50; SEAP reporter” value in assay [6] was 1.1e-08 M. For the same molecule, in assay [7], the 50% inhibitory concentration (IC50) was found to be 19 nM and the “Maximum Blocking” value amounted to 53%.

B4: H4H9663P (antibody, V domains shown)
VH: QVQLVQSGAEVKKPGASVKVSCKASGYTFTGHYMYWMRQAPGQGLEWMGWINPNSGGTNYAQKFQDRVTMTRDTSISTAYMELSRLRSDDTAVYYCARGRYGSSWYGGFEYWGQGTLVTVSS
VL: DIQMTQSPSSVSASVGDRVTITCRASQGITSWLAWYQQKPGKAPNLLIYAAASLQSGVPSRFSGSGSGTDFTLTISSLQPEDFTTYYCQQAYSLPLTFGGGTKVEIK
In assay [4], B4 came in with a Kd of 1.07 nM, an off-rate constant (koff) of 0.000545 s⁻¹, an on-rate (kon) of 511000 M⁻¹ s⁻¹ and a t1/2 of 21 min. Besides, in assay [5], the Kd turned out to be 1.03 nM, the koff worked out at 0.00202 s⁻¹, the on-rate constant (kon) turned out to be 1.96e+06 M⁻¹ s⁻¹ and the t1/2 is 6 min. For the same molecule, the “IC50; SEAP reporter” value in assay [6] came to 2.3e-08 M. In assay [7], the concentration for half-maximal inhibition (IC50) is 26 nM and the “Maximum Blocking” value amounted to 61%.

B5: H4H9671P (antibody, V domains shown)
VH: EVQLVESGGGLVQPGGSLRLSCAASGFTLRSYFMTWVRQVPGKGLEGVSAISGISGGTYYTDSVKGRFTISRDNSKNTLFLQMNSLRAEDTAVYFCARTVYSSSYYGGFQHWGQGTLVTVSS
VL: DIQMTQSPSSVSVSVGDRVTITCRASQGISSWLAWYQQKPGKAPKLLIYVASSLQSGVPSRFSGSGSGTDFTLTISSLQPEDFATYYCQQTNSFPLTFGGGTKVEIK
In assay [4], B5 yielded an equilibrium dissociation constant (Kd) of 1.72 nM, a dissociation rate constant (koff) of 0.000915 s⁻¹, an association rate constant (kon) of 533000 M⁻¹ s⁻¹ and a t1/2 of 13 min. In assay [5], the equilibrium dissociation constant (Kd) was 3.66 nM, the koff stood at 0.00326 s⁻¹, the kon was 890000 M⁻¹ s⁻¹ and the t1/2 was determined as 4 min. In assay [6], the “IC50; SEAP reporter” value was determined as 5e-08 M. Besides, in assay [7], the IC50 worked out at 70 nM and the “Maximum Blocking” value came out at 40%.

B6: H4H9662P (antibody, V domains shown)
VH: EVQLVESGGGLVQPGGSLRLSCAASGFTFSSYALTWVRQAPGKGLEWVSFISGSGGRPFYADSVKGRFTISRDNSKNMLYLQMNSLRAEDTAIYYCAKSLYTTSWYGGFDSWGQGTLVTVSS
VL: DIQMTQSPSSVSASVGDRVTITCRASQGVVSWLAWYQQKPGKAPKLLIYAASSLQSGVPSRFSGSGSGTDFTLTISSLQPEDFATYYCQQSNSFPFTLGPGTKVDIK
B6: in assay [4], binding was characterised by a dissociation constant (Kd) of 1.28 nM, the koff was 0.000313 s⁻¹, the kon came out at 245000 M⁻¹ s⁻¹ and the t1/2 stood at 37 min. In assay [5], this molecule came in with a Kd of 2.31 nM, a koff of 0.00112 s⁻¹, a kon of 484000 M⁻¹ s⁻¹ and a t1/2 of 10 min. For the same molecule, the “IC50; SEAP reporter” value in assay [6] amounted to 3.4e-08 M. Moreover, in assay [7], the IC50 amounted to 66 nM and the “Maximum Blocking” value was found to be 47%.
